This is an account of results in patent publication US20200207869A1 (INSERM INSTITUT NATIONAL DE LA SANTE ET DE LA RECHERCHE …, published 2020).

Test [1] has as its target T1, mD1-D2-HPC4 fragment (murine, UniProt Q8CIZ8 23-762).
T1 construct: range 23-762
As to the kind of experiment: ELISA, sdAb immobilized. (In general: ELISA stands for enzyme-linked immunosorbent assay.)
Experimental: (§1) Wells were then washed three times with 75 μl/well using TBS-T. Residual peroxidase activity was detected by measuring peroxidase-mediated hydrolysis of 3,3′,5,5′-tetramethylbenzidine.
(§2) Negative binding (−) was defined as optical density (OD) being ≤0.5, moderate positive binding (+) was defined as OD being >0.5 and <1.0, strongly positive binding (++) was defined as OD being ≥1.0.

The target of test [2] is T2, purified recombinant murine VWF (murine, UniProt Q8CIZ8 764-2813).
T2 construct: also called rmVWF
As to the kind of experiment: ELISA, sdAb immobilized.
Experimental: as §1, §2

Some results are limits rather than exact numbers.

B1: sdAb KB-VWF-013 (VHH)
VHH: QVQLVQSGGGLVQAGDSLRLSCAASGRTFIRYAMAWFRQAPGKEREFVAAIPQSGGRSYYADSVKGRFTISRDNAKNTVYLQMNSLKPEDTAVYSCAATSTYYGRSAYSSHSGGYDYWGQGTQVTVSS
notes: Single-domain antibody against the VWF D'D3 domain; no tag stated
B1 gave an OD in test [1] of no more than 0.5 od.

B2: sdAb KB-VWF-011 (VHH)
VHH: QVQLVQSGGGLVQAGDSLRLSCAASGGTFSNYAMGWFRQTPGKEREFVARISRSGHRTDYADSAKGRFTISRDNAKNTVYLQMNSLKPEDTAVYYCAARSDWSIATTATSYDYWGQGTQVTVSS
notes: as for B1
Take B2: the OD in test [1] and in test [2] was no more than 0.5 od throughout.
